Experimental data taken from patent publication US20200155602A1 (IMMATICS BIOTECHNOLOGIES, published 2020).

Target: T1, HLA-A*02:01 (human)
T1 construct: Peptide-receptive HLA-A*02:01 monomer obtained by UV cleavage of a UV-sensitive ligand; captured on streptavidin plates; also called peptide-receptive MHC molecules; MHC class I
Experiment: UV-ligand exchange, anti-b2m ELISA; grade of peptide exchange yield (>10% = +; >20% = ++; >50 = +++; >75% = ++++)
Excerpt: Candidate peptides for T cell based therapies according to the present invention were further tested for their MHC binding capacity (affinity). The individual peptide-MHC complexes were produced by UV-ligand exchange, where a UV-sensitive peptide is cleaved upon UV-irradiation, and exchanged with the peptide of interest as analyzed. Only peptide candidates that can effectively bind and stabilize the peptide-receptive MHC molecules prevent dissociation of the MHC complexes. To determine the yield of the exchange reaction, an ELISA was performed based on the detection of the light chain (β2m) of stabilized MHC complexes. The assay was performed as generally described in Rodenko et al. (Rodenko et al., 2006).
96 well MAXISorp plates (NUNC) were coated over night with 2 ug/ml streptavidin in PBS at room temperature, washed 4× and blocked for 1 h at 37° C. in 2% BSA containing blocking buffer. Refolded HLA-A*02:01/MLA-001 monomers served as standards, covering the range of 15-500 ng/ml. Peptide-MHC monomers of the UV-exchange reaction were diluted 100-fold in blocking buffer. Samples were incubated for 1 h at 37° C., washed four times, incubated with 2 ug/ml HRP conjugated anti-β2m for 1 h at 37° C., washed again and detected with TMB solution that is stopped with […]. Absorption was measured at 450 nm. […]

B1: SLTSFLISL (peptide)
peptide: SLTSFLISL
  peptide exchange yield: 50 to 75%
